First the molecules themselves.
B1: LRRC45 (parent)
chain: DLSAANEKNLLLQNQVDELERKFR
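Further: lentivirally expressed fusions sorted by FACS into six bins by GFP to DsRed ratio, PSI derived from sequencing read proportions per bin multiplied by bin number.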

The variants in the data set derive from B1. Kind of data set: protein stability index of a GFP-peptide fusion (GPS, HEK-293T) (PSI 1-6); higher = more stable. Conditions: c terminus: a fixed tail appended.
On to DLSAANEKNLLLQNQVDELERKSR [F23S], for which the protein stability index was found to be 4.36.
Regarding DLSAANEKNLLLQNQVDELERKVR [F23V], the protein stability index is 3.91.
Regarding DLSAANEKNLLLQNQVDELERKTR [F23T], the protein stability index was 4.39.
The result for DLSAANEKNLLLQNQVDELERKDR [F23D] reads 5; that for DLSAANEKNLLLQNQVDELERKIR [F23I], 3.6; that for DLSAANEKNLELQNQVDELERKFR [L11E], 4.84.
For DLSAANEKNLCLQNQVDELERKFR [L11C], the protein stability index amounted to 4.15.
As for DLSAANEKNLQLQNQVDELERKFR [L11Q], the protein stability index is 4.31.
Take DLSAANEKNLILQNQVDELERKFR [L11I]: the protein stability index was found to be 4.46.
In the case of DLSAANEKNLGLQNQVDELERKFR [L11G] it was 4.32; in that of DLSAANEKNLKLQNQVDELERKFR [L11K], 4.57.
In the case of DLSAANEKNLRLQNQVDELERKFR [L11R] it was 4.04.
DLSAANEKNLTLQNQVDELERKFR [L11T]: the protein stability index amounted to 3.86.
With DKSAANEKNLLLQNQVDELERKFR [L2K], the protein stability index turned out to be 5.06.
The result for DPSAANEKNLLLQNQVDELERKFR [L2P] reads 4.67.
In the case of DQSAANEKNLLLQNQVDELERKFR [L2Q], the protein stability index amounted to 4.69.
DWSAANEKNLLLQNQVDELERKFR [L2W]: the protein stability index was determined as 4.27.
For DVSAANEKNLLLQNQVDELERKFR [L2V], the protein stability index worked out at 3.89.
In the case of DCSAANEKNLLLQNQVDELERKFR [L2C], the protein stability index stood at 4.76.
In the case of DLSAANEKNVLLQNQVDELERKFR [L10V] it was 4.39; in that of DLSAANEKNCLLQNQVDELERKFR [L10C], 4.07; in that of DLSAANEKNQLLQNQVDELERKFR [L10Q], 4.51.
The result for DLSAANEKNGLLQNQVDELERKFR [L10G] reads 4.77; that for DLSAANEKNTLLQNQVDELERKFR [L10T], 4.26.
Turning to DLSAANEKNDLLQNQVDELERKFR [L10D], the protein stability index stood at 4.86.
As to DLSAANEKNKLLQNQVDELERKFR [L10K], the protein stability index is 4.
In the case of DLSAANEKNPLLQNQVDELERKFR [L10P] it was 4.75; in that of DLSAANEKNHLLQNQVDELERKFR [L10H], 4.62; in that of DLSAANEKNLLLQPQVDELERKFR [N14P], 3.69.
In the case of DLSAANEKNLLLQRQVDELERKFR [N14R] it was 3.76; in that of DLSAANEKNLLLQVQVDELERKFR [N14V], 3.62.
In the case of DLSAANEKNLLLQWQVDELERKFR [N14W] it was 3.63; in that of DLSAANEKNLLLQAQVDELERKFR [N14A], 3.95.
For DLCAANEKNLLLQNQVDELERKFR [S3C], the protein stability index was 3.74.
For the variant DLVAANEKNLLLQNQVDELERKFR [S3V], the protein stability index turned out to be 3.89.
Consider DLYAANEKNLLLQNQVDELERKFR [S3Y], for which the protein stability index is 3.58.
For DLRAANEKNLLLQNQVDELERKFR [S3R], the protein stability index turned out to be 4.26.
Turning to DLMAANEKNLLLQNQVDELERKFR [S3M], the protein stability index was 4.11.
DLSAANEKNLLLQNQVDELERLFR [K22L]: the protein stability index turned out to be 3.49.
For DLSAANEKNLLLQNQVDELERTFR [K22T], the protein stability index is 3.71.
The result for DLSAANEKNLLLQNQVDELERRFR [K22R] reads 3.22; that for DLSAANEKNLLLQNQVDELERYFR [K22Y], 3.34.
Turning to DLSAANEKNLLLQNQVDELERDFR [K22D], the protein stability index is 4.31.
Consider DLSAAWEKNLLLQNQVDELERKFR [N6W], for which the protein stability index came to 3.37.
In the case of DLSAACEKNLLLQNQVDELERKFR [N6C] it was 4.59.
Take DLSAAEEKNLLLQNQVDELERKFR [N6E]: the protein stability index was found to be 4.69.
For the variant DLSAALEKNLLLQNQVDELERKFR [N6L], the protein stability index amounted to 3.8.
Regarding DLSAADEKNLLLQNQVDELERKFR [N6D], the protein stability index came to 5.02.
For the variant DLSAATEKNLLLQNQVDELERKFR [N6T], the protein stability index is 4.4.
The result for DLSAAVEKNLLLQNQVDELERKFR [N6V] reads 4.38; that for DLSAANEKNLLLQNEVDELERKFR [Q15E], 4.7.
The result for DLSAANEKNLLLQNNVDELERKFR [Q15N] reads 3.75; that for DLSAANEKNLLLQNCVDELERKFR [Q15C], 3.84.
As to DLSAANEKNLLLQNIVDELERKFR [Q15I], the protein stability index is 3.38.
Regarding DLSAANEKNLLLQNHVDELERKFR [Q15H], the protein stability index stood at 4.04.
On to DLSAANEKNLLLQNGVDELERKFR [Q15G], for which the protein stability index is 4.36.
As for DLSAANEKNLLLQNKVDELERKFR [Q15K], the protein stability index was 4.06.
As to DLSYANEKNLLLQNQVDELERKFR [A4Y], the protein stability index is 3.91.
The result for DLSNANEKNLLLQNQVDELERKFR [A4N] reads 3.29; that for DLSCANEKNLLLQNQVDELERKFR [A4C], 3.85; that for DLSWANEKNLLLQNQVDELERKFR [A4W], 3.78.
Turning to DLSDANEKNLLLQNQVDELERKFR [A4D], the protein stability index came to 4.67.
For the variant DLSGANEKNLLLQNQVDELERKFR [A4G], the protein stability index turned out to be 3.77.
The result for DLSTANEKNLLLQNQVDELERKFR [A4T] reads 4.06; that for DLSSANEKNLLLQNQVDELERKFR [A4S], 4.05.
With DLSHANEKNLLLQNQVDELERKFR [A4H], the protein stability index turned out to be 4.01.
The result for DLSAANEINLLLQNQVDELERKFR [K8I] reads 3.43.
In the case of DLSAANELNLLLQNQVDELERKFR [K8L], the protein stability index came out at 3.6.
As for DLSAANESNLLLQNQVDELERKFR [K8S], the protein stability index was found to be 4.36.
Consider DLSAANEKNLLLQNQVDELNRKFR [E20N], for which the protein stability index was 3.27.
For DLSAANEKNLLLQNQVDELMRKFR [E20M], the protein stability index is 2.81.
As to DLSAANEKNLLLQNQVDELYRKFR [E20Y], the protein stability index worked out at 2.86.
With DLSAANEKNLLLQNQVDELGRKFR [E20G], the protein stability index was found to be 3.22.
Consider DLSAANEKNLLLQNQVDELPRKFR [E20P], for which the protein stability index is 3.12.
As to DLSAANEKNLLLQNQVDELRRKFR [E20R], the protein stability index worked out at 3.06.
For the variant DLSAANEKNLLLQNQVDELARKFR [E20A], the protein stability index is 3.96.
In the case of DLSAANEKNLLLQNQVDGLERKFR [E18G], the protein stability index is 3.67.
DLSAANEKNLLLQNQVDTLERKFR [E18T]: the protein stability index came to 3.7.
In the case of DLSAANEKNLLLQNQVDWLERKFR [E18W], the protein stability index was determined as 3.36.
Consider DLSAANEKNLLLQNQVDHLERKFR [E18H], for which the protein stability index was 3.35.
With DLSAANEKNLLLQNQVDMLERKFR [E18M], the protein stability index was 3.23.
Take DLSAANEKNLLLQNQVDLLERKFR [E18L]: the protein stability index is 3.31.
In the case of DLSAANEKGLLLQNQVDELERKFR [N9G] it was 3.93.
In the case of DLSAANEKWLLLQNQVDELERKFR [N9W], the protein stability index was 3.79.
As to DLSAANEKILLLQNQVDELERKFR [N9I], the protein stability index came to 4.21.
Take DLSAANEKQLLLQNQVDELERKFR [N9Q]: the protein stability index came to 4.57.
Turning to DLSAANEKDLLLQNQVDELERKFR [N9D], the protein stability index came to 4.91.
Take DLSAANEKNLLMQNQVDELERKFR [L12M]: the protein stability index was determined as 3.87.
In the case of DLSAANEKNLLRQNQVDELERKFR [L12R] it was 3.98; in that of DLSAANEKNLLNQNQVDELERKFR [L12N], 4.01.
As for DLSAANEKNLLTQNQVDELERKFR [L12T], the protein stability index is 3.64.
As to DLSAANEKNLLGQNQVDELERKFR [L12G], the protein stability index came to 4.03.
In the case of DLSAANEKNLLEQNQVDELERKFR [L12E] it was 4.61; in that of DLSAANEKNLLDQNQVDELERKFR [L12D], 4.46.

These data come from the supplement of paper PMC10567573.
